{"source": "paper PMC5595889", "target": "mouse importin α1 lacking the N-terminal importin-β-binding domain (ΔIBB-importin α1) (mouse)", "assay": "ITC"}
{"substance": "influenza NLS2-K peptide (198-[…]-216)", "values": [{"measurement": "Kd", "value": 72.4, "unit": "µM"}]}
